{"source": "patent US20250161220A1", "about": "“LYMPHATIC DELIVERY OF NANOPARTICLES TO TREAT NEURODEGENERATIVE, NEUROLOGICAL, AND EYE CONDITIONS” (The Cleveland Clinic Foundation, priority 2022, published 2025)", "molecules": {"B1": {"name": "Human CAT: Recombinant human catalase obtained from BioVision or Creative BioMart (protein, UniProt P04040 2-527, looked up)", "Catalase": "ADSRDPASDQMQHWKEQRAAQKADVLTTGAGNPVGDKLNVITVGPRGPLLVQDVVFTDEMAHFDRERIPERVVHAKGAGAFGYFEVTHDITKYSKAKVFEHIGKKTPIAVRFSTVAGESGSADTVRDPRGFAVKFYTEDGNWDLVGNNTPIFFIRDPILFPSFIHSQKRNPQTHLKDPDMVWDFWSLRPESLHQVSFLFSDRGIPDGHRHMNGYGSHTFKLVNANGEAVYCKFHYKTDQGIKNLSVEDAARLSQEDPDYGIRDLFNAIATGKYPSWTFYIQVMTFNQAETFPFNPFDLTKVWPHKDYPLIPVGKLVLNRNPVNYFAEVEQIAFDPSNMPPGIEASPDKMLQGRLFAYPDTHRHRLGPNYLHIPVNCPYRARVANYQRDGPMCMQDNQGGAPNYYPNSFGAPEQQPSALEHSIQYSGEVRRFNTANDDNVTQVRAFYVNVLNEEQRKRLCENIAGHLKDAQIFIQKKAVKNFTEVHPDYGSHIQALLDKYNAEKPKNAIHTFVQSGSHLAAREKANL"}}, "experiment": "Catalytic activity of recombinant human CAT versus bovine CAT", "type": "biochemical", "conditions": "data normalized to per mg", "source_text": "In certain embodiments, the nanoparticles are formulated with antioxidant enzymes. For example, the following may be employed for generating SOD and catalase nanoparticles. […] In certain embodiments, SOD is an enzyme that catalyzes the conversion of superoxide to H2O2 and catalase is an enzyme that further degrades H2O2 to molecular oxygen and water. The SOD and catalase for use in the methods and compositions of the invention can be obtained from a variety of sources. In a particular embodiment, the SOD and/or catalase are mammalian SOD and/or mammalian catalase, and/or recombinant catalase. As used herein “mammal” and/or “mammalian” refer to a primate, canine, feline, rodent, and the like. Specific examples of mammalian SOD and/or catalase include human, pig, dog, cat, horse, cow, sheep, goat, rabbit, guinea pig, rats and mice SOD and/or catalase."}
{"molecule": "B1", "values": [{"measurement": "catalytic potency relative to bovine CAT", "result": 5.7, "unit": "fold"}]}
